Source: publication PMC9779223
Blank lines part the entries; values can stand above or below the substance they belong to.

Assays:
[1] = tested on: P09493; test: viscosity measurement; falling ball microviscometer, 20 °C; Tpm 1.0 mg/mL (15 µM) with TnT1 at molar ratio 1/1; 30 mM HEPES-Na pH 7.3, 100 mM NaCl, 4 mM DTT; excess viscosity over buffer; conditions: other: viscosity measurement
[2] = tested on: P09493; test: viscosity measurement; falling ball microviscometer, 20 °C; Tpm 1.0 mg/mL (15 µM), without TnT1; 30 mM HEPES-Na pH 7.3, 100 mM NaCl, 4 mM DTT; excess viscosity over buffer as read-out of the end-to-end overlap junction of Tpm dimers; conditions: other: viscosity measurement
[3] = biological target: Human Tpm1.1 (α-Tpm) A277V (human) (UniProt P09493); test: ITC; MicroCal PEAQ-ITC, 25 °C; 30 mM HEPES-Na pH 7.3, 100 mM NaCl, 1 mM DTT; sample in the cell 30 to 60 µM, ligand in the syringe 200 to 700 µM; one set of binding sites
Human Tpm1.1 (α-Tpm) A277V (human), sequence (P09493 other isoform, or with tags, fused parts or gaps A277V | A277V): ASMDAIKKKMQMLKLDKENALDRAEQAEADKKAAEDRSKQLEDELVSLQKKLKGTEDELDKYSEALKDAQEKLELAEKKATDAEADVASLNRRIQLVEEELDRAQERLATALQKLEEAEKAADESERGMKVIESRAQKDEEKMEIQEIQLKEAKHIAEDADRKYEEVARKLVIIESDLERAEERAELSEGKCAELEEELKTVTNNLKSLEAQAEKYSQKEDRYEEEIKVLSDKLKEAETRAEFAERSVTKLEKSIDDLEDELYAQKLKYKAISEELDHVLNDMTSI

[4] = biological target: Premixed complex of Tpm WT 1–133 and Tpm WT 134–284 (human) (UniProt P09493); test: as above
Premixed complex of Tpm WT 1–133 and Tpm WT 134–284 (human), sequence (P09493 other isoform, or with tags, fused parts or gaps, chain 1 of 2): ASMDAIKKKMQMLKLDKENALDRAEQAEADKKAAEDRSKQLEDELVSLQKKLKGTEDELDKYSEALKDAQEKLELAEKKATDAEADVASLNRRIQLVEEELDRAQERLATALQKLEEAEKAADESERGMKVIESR
Premixed complex of Tpm WT 1–133 and Tpm WT 134–284 (human), sequence (P09493 134-284, chain 2 of 2): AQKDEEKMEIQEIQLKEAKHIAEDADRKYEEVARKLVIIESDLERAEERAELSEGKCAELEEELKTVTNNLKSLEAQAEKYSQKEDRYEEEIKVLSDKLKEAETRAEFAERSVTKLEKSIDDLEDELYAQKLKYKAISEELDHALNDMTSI

[5] = biological target: Human Tpm1.1 (α-Tpm) M8R (human) (UniProt P09493); test: as above
Human Tpm1.1 (α-Tpm) M8R (human), sequence (P09493 other isoform, or with tags, fused parts or gaps M8R): as the sequence (P09493 other isoform, or with tags, fused parts or gaps A277V | A277V) above, with M10R, V279A counted along it

[6] = biological target: Human Tpm1.1 (α-Tpm) I284V (human) (UniProt P09493); test: as above
Human Tpm1.1 (α-Tpm) I284V (human), sequence (P09493 other isoform, or with tags, fused parts or gaps I284V | I284V): as the sequence (P09493 other isoform, or with tags, fused parts or gaps A277V | A277V) above, with V279A, I286V counted along it

[7] = biological target: Human Tpm1.1 (α-Tpm) WT (human) (UniProt P09493); test: as above
Human Tpm1.1 (α-Tpm) WT (human), sequence (P09493 other isoform, or with tags, fused parts or gaps): as the sequence (P09493 other isoform, or with tags, fused parts or gaps A277V | A277V) above, with V279A counted along it

[8] = biological target: Human Tpm1.1 (α-Tpm) M281T (human) (UniProt P09493); test: as above
Human Tpm1.1 (α-Tpm) M281T (human), sequence (P09493 other isoform, or with tags, fused parts or gaps M281T | M281T): as the sequence (P09493 other isoform, or with tags, fused parts or gaps A277V | A277V) above, with V279A, M283T counted along it

[9] = biological target: Tropomyosin C-terminal fragment Tpm WT 134–284 (human) (UniProt P09493); test: as above
Tropomyosin C-terminal fragment Tpm WT 134–284 (human), sequence (P09493 134-284): as the sequence (P09493 134-284, chain 2 of 2) above

[10] = biological target: Human Tpm1.1 (α-Tpm) K15N (human) (UniProt P09493); test: as above
Human Tpm1.1 (α-Tpm) K15N (human), sequence (P09493 other isoform, or with tags, fused parts or gaps K15N | K15N): as the sequence (P09493 other isoform, or with tags, fused parts or gaps A277V | A277V) above, with K17N, V279A counted along it

[11] = biological target: Premixed complex of TnT1 and Tpm WT 134–284 (human) (UniProt P09493); test: as above

Substance: Human Tpm1.1 (α-Tpm) WT
excess viscosity [1]: 0.992 ± 0.001 mPa·s
excess viscosity [2]: 0.125 mPa·s

Kd [3]: 2510 nM
dH [3]: -10.6 kcal/mol
stoichiometry N [3]: 1.03
Kd [4]: 900 nM
dH [4]: -7.7 kcal/mol
stoichiometry N [4]: 0.69
Kd [5]: 1900 nM
dH [5]: 2.51 kcal/mol
stoichiometry N [5]: 1.15
Kd [6]: 1890 nM
dH [6]: -14.4 kcal/mol
stoichiometry N [6]: 0.775
Kd [7]: 910 nM
dH [7]: -9.69 kcal/mol
stoichiometry N [7]: 0.629
Kd [8]: 1520 nM
dH [8]: -8.83 kcal/mol
stoichiometry N [8]: 0.857
Kd [9]: 1900 nM
dH [9]: 2.1 kcal/mol
stoichiometry N [9]: 1.06
Kd [10]: 1300 nM
dH [10]: -12.1 kcal/mol
stoichiometry N [10]: 1.05
Substance: Human adult cardiac troponin T fragment TnT1 (TnT1–158) (domain or fragment)

Kd [11]: 1700 nM
dH [11]: -6.5 kcal/mol
stoichiometry N [11]: 1.07
Substance: Tropomyosin N-terminal fragment Tpm WT 1–133 (from UniProt P09493 1-133) (domain or fragment)
